From patent US9176064B2, “Bisubstrate fluorescent probes for protein kinase CK2” (University of Tartu, priority 2012, dated 2015) come the findings set out here.

Each structure is given as a SMILES string. Where a SMILES comes first, the peptide text is derived from it. [ ]: non-standard residue; d: D form. The star is where a group is joined. X1 = O=C(CCCCCCCn1cnc2c(Br)c(Br)c(Br)c(Br)c21)*

Holding throughout (assay): Kinase panel residual activity
Holding throughout (assay type): biochemical
What all share (settings): compound at 1 micromolar

Data set [1] deals with T1, ERK8 (Homo sapiens, UniProt Q8TD08).
T1 sequence (Q8TD08 1-544): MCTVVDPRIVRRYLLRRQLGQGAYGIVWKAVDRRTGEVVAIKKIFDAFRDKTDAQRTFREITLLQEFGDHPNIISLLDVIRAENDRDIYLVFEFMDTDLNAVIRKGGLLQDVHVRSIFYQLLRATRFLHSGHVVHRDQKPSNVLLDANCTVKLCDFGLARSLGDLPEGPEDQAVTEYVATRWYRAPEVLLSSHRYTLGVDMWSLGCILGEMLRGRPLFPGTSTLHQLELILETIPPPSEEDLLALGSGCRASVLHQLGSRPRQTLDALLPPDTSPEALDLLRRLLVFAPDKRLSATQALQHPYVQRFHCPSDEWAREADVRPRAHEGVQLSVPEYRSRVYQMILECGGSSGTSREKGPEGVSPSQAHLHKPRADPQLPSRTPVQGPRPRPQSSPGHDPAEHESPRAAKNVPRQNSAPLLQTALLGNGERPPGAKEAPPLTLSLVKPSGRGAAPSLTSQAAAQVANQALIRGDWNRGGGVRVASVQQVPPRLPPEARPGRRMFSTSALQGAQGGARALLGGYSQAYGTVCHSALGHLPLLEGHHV

The target of data set [2] is NEK6 (Homo sapiens, UniProt Q9HC98).
For data set [3], the target named is PRK2 (Homo sapiens, UniProt Q16513).
The target in data set [4] is T2, TGFBR1 (Homo sapiens, UniProt P36897).
T2 sequence (P36897 34-503): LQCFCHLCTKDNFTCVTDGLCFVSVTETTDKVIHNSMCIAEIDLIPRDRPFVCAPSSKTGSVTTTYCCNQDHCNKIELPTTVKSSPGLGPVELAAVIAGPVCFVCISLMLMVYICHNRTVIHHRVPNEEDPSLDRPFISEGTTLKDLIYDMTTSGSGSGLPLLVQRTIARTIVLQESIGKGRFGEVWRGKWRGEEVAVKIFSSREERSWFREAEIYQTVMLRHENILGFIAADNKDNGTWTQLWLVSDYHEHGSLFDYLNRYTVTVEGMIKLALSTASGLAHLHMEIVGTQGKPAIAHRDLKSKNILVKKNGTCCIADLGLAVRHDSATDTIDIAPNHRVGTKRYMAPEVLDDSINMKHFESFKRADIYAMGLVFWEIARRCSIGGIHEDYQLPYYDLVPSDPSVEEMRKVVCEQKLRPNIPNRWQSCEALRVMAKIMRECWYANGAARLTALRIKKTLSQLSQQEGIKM

Data set [5] has as its target IGF-1R (Homo sapiens, UniProt P08069).
Data set [6] deals with MKK2 (Homo sapiens, UniProt P36507).
Data set [7] deals with MSK1 (Homo sapiens, UniProt O75582).
For data set [8], the target named is SRPK1 (Homo sapiens, UniProt Q96SB4).
For data set [9], the target named is MPSK1 (Homo sapiens, UniProt O75716).
For data set [10], the target named is FGF-R1 (Homo sapiens, UniProt P11362).
In data set [11] the target is T3, PRAK (Homo sapiens, UniProt Q8IW41).
T3 sequence (Q8IW41 1-473): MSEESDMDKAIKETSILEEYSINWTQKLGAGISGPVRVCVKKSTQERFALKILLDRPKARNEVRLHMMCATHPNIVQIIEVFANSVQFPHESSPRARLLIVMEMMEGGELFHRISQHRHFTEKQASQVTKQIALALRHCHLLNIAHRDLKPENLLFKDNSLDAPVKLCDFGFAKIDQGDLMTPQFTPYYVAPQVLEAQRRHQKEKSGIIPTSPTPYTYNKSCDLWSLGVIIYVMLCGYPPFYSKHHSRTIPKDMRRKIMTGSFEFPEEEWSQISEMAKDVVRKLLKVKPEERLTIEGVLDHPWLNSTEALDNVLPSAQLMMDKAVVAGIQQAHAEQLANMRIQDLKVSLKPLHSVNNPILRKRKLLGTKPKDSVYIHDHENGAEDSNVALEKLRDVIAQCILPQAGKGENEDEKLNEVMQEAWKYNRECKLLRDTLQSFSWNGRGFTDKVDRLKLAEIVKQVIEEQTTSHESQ

The target in data set [12] is T4, TLK1 (Homo sapiens, UniProt Q9UKI8).
T4 sequence (Q9UKI8 1-766): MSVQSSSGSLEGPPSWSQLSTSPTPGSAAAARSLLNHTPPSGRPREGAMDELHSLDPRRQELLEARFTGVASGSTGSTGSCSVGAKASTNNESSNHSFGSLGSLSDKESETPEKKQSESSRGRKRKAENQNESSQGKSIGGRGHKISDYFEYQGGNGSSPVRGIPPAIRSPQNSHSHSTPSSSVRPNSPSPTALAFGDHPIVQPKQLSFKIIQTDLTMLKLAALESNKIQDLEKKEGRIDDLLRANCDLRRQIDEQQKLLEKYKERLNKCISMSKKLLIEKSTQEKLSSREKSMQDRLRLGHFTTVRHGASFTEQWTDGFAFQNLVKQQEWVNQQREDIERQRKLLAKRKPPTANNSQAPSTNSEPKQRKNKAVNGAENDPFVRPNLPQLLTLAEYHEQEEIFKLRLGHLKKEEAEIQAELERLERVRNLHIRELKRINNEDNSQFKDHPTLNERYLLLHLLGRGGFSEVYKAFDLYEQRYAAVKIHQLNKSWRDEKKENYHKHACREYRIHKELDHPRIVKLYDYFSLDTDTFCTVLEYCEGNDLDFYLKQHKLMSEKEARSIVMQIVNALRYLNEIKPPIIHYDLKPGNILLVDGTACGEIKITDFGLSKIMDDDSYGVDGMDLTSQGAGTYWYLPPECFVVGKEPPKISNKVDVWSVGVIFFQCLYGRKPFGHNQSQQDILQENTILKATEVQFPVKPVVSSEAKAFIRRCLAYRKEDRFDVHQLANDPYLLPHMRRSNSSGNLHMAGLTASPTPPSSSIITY

Data set [13] deals with PLK1 (Homo sapiens, UniProt P53350).
The target of data set [14] is ABL (Homo sapiens, UniProt P00519).
ABL, sequence (P00519 whole entry, species assumed): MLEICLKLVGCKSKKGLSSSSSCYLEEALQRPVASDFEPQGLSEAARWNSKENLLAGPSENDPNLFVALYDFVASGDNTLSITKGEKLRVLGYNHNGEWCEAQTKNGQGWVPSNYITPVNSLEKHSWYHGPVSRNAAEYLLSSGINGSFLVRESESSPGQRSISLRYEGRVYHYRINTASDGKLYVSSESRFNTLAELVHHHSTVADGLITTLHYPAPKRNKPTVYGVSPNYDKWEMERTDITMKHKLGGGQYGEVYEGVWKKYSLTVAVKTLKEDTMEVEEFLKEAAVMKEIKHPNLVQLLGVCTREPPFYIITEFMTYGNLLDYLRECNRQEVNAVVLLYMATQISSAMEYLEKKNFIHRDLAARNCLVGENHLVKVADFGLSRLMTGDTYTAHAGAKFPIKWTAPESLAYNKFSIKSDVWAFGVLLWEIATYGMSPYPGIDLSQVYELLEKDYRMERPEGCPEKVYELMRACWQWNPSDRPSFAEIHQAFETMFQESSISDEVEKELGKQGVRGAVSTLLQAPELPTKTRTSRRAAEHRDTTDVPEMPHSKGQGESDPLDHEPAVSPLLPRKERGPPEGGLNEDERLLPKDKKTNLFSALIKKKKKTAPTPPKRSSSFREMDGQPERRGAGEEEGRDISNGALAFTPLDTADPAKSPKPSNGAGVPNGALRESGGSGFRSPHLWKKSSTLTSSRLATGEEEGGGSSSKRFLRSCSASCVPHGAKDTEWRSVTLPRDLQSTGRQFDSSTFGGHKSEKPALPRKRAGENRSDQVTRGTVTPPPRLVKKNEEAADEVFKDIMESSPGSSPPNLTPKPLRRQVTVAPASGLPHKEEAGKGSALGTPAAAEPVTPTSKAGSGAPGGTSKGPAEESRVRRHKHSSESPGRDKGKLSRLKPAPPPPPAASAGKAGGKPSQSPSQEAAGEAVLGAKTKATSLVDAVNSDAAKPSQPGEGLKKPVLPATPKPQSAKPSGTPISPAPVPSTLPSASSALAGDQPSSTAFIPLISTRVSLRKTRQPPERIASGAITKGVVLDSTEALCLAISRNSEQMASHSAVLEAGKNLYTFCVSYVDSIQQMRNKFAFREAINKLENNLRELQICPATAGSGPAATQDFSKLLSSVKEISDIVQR

FGF-R1, sequence (P11362 22-822, species assumed): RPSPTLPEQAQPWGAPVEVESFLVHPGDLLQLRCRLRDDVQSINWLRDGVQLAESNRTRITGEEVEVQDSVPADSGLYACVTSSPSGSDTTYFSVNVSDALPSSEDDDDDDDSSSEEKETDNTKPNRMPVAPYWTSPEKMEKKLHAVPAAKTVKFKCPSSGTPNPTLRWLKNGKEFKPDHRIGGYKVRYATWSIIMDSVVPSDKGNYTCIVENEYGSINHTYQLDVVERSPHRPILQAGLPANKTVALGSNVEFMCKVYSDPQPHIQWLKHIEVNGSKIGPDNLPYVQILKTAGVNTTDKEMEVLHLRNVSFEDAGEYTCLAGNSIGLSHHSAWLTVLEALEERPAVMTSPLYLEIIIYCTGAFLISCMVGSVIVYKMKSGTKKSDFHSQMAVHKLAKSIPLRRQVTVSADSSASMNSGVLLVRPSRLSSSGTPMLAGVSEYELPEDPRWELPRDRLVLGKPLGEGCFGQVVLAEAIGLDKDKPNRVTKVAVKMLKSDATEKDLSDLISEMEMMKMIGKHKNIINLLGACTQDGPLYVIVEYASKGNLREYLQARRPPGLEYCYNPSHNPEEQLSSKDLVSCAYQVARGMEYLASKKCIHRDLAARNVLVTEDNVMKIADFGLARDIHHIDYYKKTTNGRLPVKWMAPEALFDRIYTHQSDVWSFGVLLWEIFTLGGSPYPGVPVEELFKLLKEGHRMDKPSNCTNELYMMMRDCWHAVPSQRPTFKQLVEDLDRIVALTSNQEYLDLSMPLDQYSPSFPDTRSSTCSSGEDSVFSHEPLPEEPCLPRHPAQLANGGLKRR
SRPK1, sequence (Q96SB4 whole entry, species assumed): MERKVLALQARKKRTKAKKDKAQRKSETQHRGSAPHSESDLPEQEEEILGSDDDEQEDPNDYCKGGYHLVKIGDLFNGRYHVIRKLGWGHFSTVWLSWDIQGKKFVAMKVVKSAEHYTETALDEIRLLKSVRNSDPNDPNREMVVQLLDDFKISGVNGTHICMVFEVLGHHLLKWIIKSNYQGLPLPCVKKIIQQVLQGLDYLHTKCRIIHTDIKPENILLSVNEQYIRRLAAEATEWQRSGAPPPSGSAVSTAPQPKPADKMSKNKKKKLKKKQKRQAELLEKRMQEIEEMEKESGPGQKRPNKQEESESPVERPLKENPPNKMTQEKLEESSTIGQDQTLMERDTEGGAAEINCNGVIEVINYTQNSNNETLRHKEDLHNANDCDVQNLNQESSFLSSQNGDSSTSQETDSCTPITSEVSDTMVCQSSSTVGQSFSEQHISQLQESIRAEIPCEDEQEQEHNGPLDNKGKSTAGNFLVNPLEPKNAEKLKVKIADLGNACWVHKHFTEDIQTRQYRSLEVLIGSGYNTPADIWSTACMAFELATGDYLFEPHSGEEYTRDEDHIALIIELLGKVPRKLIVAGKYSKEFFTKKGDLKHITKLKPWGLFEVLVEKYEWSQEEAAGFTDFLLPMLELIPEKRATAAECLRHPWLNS
PLK1, sequence (P53350 whole entry, species assumed): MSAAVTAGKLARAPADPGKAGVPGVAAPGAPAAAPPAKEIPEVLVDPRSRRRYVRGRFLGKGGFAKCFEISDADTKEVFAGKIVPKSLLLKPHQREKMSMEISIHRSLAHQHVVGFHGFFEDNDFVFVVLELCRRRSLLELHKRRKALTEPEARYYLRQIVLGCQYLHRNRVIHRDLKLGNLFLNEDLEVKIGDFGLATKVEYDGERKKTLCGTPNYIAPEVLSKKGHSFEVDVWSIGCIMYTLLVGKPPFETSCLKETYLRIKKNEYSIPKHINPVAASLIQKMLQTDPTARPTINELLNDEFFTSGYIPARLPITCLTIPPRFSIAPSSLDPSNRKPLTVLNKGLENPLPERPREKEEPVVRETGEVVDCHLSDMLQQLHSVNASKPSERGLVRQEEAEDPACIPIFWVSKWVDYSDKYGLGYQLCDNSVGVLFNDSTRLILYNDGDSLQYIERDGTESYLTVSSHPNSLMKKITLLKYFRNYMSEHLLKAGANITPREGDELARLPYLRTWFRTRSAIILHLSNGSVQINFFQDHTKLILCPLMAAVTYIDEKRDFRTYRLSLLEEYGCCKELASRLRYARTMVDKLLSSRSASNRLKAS
MSK1, sequence (O75582 whole entry, species assumed): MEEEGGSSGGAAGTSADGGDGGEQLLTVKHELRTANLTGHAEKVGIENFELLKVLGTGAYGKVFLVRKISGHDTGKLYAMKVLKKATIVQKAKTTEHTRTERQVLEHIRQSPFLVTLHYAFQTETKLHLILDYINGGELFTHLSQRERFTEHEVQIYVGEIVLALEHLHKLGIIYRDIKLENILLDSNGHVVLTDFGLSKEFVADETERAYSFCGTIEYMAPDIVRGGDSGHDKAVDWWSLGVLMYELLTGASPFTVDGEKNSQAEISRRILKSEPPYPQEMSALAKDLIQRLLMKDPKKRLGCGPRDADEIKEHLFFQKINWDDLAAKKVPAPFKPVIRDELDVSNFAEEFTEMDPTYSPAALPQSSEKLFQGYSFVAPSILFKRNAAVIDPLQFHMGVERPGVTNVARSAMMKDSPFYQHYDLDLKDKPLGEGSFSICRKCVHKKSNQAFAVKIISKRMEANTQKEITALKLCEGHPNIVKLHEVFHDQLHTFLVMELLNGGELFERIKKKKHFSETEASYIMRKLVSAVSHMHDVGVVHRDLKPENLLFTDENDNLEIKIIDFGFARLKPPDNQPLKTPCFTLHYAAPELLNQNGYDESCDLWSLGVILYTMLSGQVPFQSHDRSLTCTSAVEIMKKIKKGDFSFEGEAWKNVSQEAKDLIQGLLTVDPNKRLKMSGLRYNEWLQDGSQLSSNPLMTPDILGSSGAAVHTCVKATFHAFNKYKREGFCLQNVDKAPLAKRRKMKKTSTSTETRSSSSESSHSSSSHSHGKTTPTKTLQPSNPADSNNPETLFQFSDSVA
PRK2, sequence (Q16513 whole entry, species assumed): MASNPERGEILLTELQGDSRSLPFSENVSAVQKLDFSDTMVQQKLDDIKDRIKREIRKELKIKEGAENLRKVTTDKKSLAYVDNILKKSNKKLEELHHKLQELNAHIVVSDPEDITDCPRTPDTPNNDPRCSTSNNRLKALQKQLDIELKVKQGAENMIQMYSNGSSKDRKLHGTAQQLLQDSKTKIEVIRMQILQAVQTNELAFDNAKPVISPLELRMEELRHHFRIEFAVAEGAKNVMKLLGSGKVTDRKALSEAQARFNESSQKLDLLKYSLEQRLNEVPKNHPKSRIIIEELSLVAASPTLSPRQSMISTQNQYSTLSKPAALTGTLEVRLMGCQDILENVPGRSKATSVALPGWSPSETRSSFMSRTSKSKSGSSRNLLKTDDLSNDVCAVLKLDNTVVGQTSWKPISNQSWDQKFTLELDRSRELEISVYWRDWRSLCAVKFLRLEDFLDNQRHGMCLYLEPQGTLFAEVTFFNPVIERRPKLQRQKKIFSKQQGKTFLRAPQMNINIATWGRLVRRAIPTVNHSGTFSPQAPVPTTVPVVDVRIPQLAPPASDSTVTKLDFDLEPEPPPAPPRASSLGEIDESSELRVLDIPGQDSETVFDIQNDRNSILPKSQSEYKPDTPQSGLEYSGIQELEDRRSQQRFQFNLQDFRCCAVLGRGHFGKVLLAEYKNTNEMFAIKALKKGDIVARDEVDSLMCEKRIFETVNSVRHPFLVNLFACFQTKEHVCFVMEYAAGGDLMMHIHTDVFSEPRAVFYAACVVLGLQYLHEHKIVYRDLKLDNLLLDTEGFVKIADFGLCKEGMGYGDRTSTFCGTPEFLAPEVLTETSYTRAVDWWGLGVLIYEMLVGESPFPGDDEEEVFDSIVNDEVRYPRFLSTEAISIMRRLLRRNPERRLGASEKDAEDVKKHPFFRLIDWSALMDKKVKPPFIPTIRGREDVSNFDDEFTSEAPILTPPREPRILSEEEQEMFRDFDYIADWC

Consider `NCCCC[C@H](NC(=O)[C@H](CC(=O)O)NC(=O)[C@H](CC(=O)O)NC(=O)[C@H](CC(=O)O)NC(=O)[C@H](CC(=O)O)NC(=O)[C@H](CC(=O)O)NC(=O)[C@@H](CC(=O)O)NC(=O)CCCCCCCn1cnc2c(Br)c(Br)c(Br)c(Br)c21)C(=O)O` [TBBI-OcA-(D-Asp)-(L-Asp)5-(L-Lys)-OH] (X1-[dD]DDDDDK-OH), for which the remaining activity at 1 µM in data set [1] is 25%; in data set [2], 121%; in data set [3], 92%; in data set [4], 98%; in [5], 116%; in [6] it was 66%. The remaining activity at 1 µM is 102% in data set [7]; 61% in data set [8]; 96% in data set [9]; 110% in data set [10]; 74% in data set [11]; 107% in data set [12]. In addition, the remaining activity at 1 µM in data set [13] came out at 18%; in [14], 101%.

By remaining activity is commonly meant the signal under treatment as a percentage of the control signal.
